Measured values taken from patent US20160222130A1 (Astellas, published 2016).
One block for each binder: values may come before it.

How the values were obtained:
Human Tie2 (1-452)g4-Fc = target: T1, Human Tie2 (1-452)g4-Fc (human, UniProt Q02763 23-452); test: SPR (Biacore T200); Tie2-Fc captured on anti-human IgG (Fc), Fab at 50 nM; mean of 3
T1 construct: range 1-452
Method: (§1) SPR analysis was carried out in order to evaluate the binding activity of the human Tie2 (1-452)-Fc chimera protein and 23 mutant proteins thereof to the fully human 2-16A2-Fab.
(§2) For SPR analysis, Biacore T200 (GE Healthcare) was used. An anti-human IgG (Fc) antibody (Human Antibody Capture Kit, GE Healthcare) was fixed onto a CM5 sensor chip. The human Tie2 (1-452)-Fc chimeric protein and 23 mutant proteins thereof, diluted with HBS-EP (GE Healthcare) at 5 μg/mL, were each allowed for immobilization, and the capture-amount was measured. Thereafter, the fully human 2-16A2-Fab diluted with HBS-EP to 50 nM, the binding amount thereof to the human Tie2 (1-452)-Fc chimeric protein and 23 mutant proteins thereof were measured. Further, by dividing the binding amount with the capture-amount, the binding amount of the antibody in the unit immobilized antigen (hereinafter referred to as a binding ratio) was calculated. The arithmetic mean of three experiments and the relative value of the binding ratio of each mutant proteins when the binding ratio of the human Tie2 (1-452)-Fc chimeric protein was taken as 100% are shown in Table 7.

Human Tie2 (1-452)r5-Fc = target: T2, Human Tie2 (1-452)r5-Fc (human, UniProt Q02763 23-452); test: as above
T2 construct: range 1-452
Method: as §1, §2

Human Tie2 (1-452)r2-Fc = target: T3, Human Tie2 (1-452)r2-Fc (human, UniProt Q02763 23-452); test: as above
T3 construct: range 1-452
Method: as §1, §2

Human Tie2 (1-452)y1-Fc = target: T4, Human Tie2 (1-452)y1-Fc (human, UniProt Q02763 23-452); test: as above
T4 construct: range 1-452
Method: as §1, §2

Human Tie2 (1-452)A2-Fc [1] = target: T5, Human Tie2 (1-452)A2-Fc (human, UniProt Q02763 23-452); test: as above
T5 construct: range 1-452
Method: as §1, §2

Human Tie2 (1-452)g1-Fc = target: T6, Human Tie2 (1-452)g1-Fc (human, UniProt Q02763 23-452); test: as above
T6 construct: range 1-452
Method: as §1, §2

Human Tie2 (1-452)r1-Fc = target: T7, Human Tie2 (1-452)r1-Fc (human, UniProt Q02763 23-452); test: as above
T7 construct: range 1-452
Method: as §1, §2

Human Tie2 (1-452)r4-Fc = target: T8, Human Tie2 (1-452)r4-Fc (human, UniProt Q02763 23-452); test: as above
T8 construct: range 1-452
Method: as §1, §2

[2] = target: T9, human Tie2 (1-452)-Fc chimeric protein (human, UniProt Q02763 23-452); test: ELISA; Tie2-Fc coated at 1 ug/mL; signal at 100 ng/mL antibody vs convergence value on the parent
T9 construct: range 1-452; The stated range 1-452 begins at residue 1 of the precursor
Method: (§3) The next day, the immobilized solution was removed, and the plate was washed with a TBS-T solution, and incubated for 60 minutes by the addition of 50 μL of a Blocker™ Casein in TBS (Thermo Fisher Scientific Inc., 37532) to perform blocking. The resultant was washed with a TBS-T solution, and TIE-1-Igγ1-LALA, diluted with 0.05% Tween 20 (Nacalai Tesque Inc., 28353-85)—containing Blocker™ Casein in TBS from 0.03 ng/mL to 100 ng/mL through eight steps, was added thereto in the amount of 20 μL per well. The resultant was incubated at room temperature for 90 minutes and then washed with a TBS-T solution three times, and 20 μL of a biotin-labeled anti-human kappa light chain antibody, which had been diluted to 0.1 μg/mL with 0.05% Tween 20-containing Blocker™ Casein in TBS, was added thereto. The resultant was incubated at room temperature for 60 minutes and then washed with a TBS-T solution three times, and 20 μL of alkaline phosphatase-labeled streptavidin, which had been diluted to 0.1 μg/mL with 0.05% Tween 20-containing Blocker™ Casein in TBS, was added thereto. The resultant was incubated at room temperature for 60 minutes and then washed with a TBS-T solution three times, and 50 μL of Chemiluminescent Ultra Sensitive AP Microwell and/or Membrane Substrate (450 nm), which had been 5-fold diluted with 1 mM MgCl₂-containing 20 mM TBS (pH 9.8) as a substrate, was added thereto. The resultant was incubated at room temperature under light-shielding for 40 minutes, and then luminescent intensity thereof was measured with an EnVision™ multi-label counter. The EC₅₀ value of TIE-1-Igγ1-LALA with respect to the human Tie2 (1-452)-Fc chimeric protein and 23 mutant proteins thereof were calculated. The relative value of luminescent intensity of 100 ng/mL TIE-1-Igγ1-LALA as maximum concentration point with respect to human Tie2 (1-452)-Fc chimeric protein and 23 mutant proteins thereof when the convergence value of the sigmoid curve of TIE-1-Igγ1-LALA binding to the human Tie2 (1-452)-Fc chimeric protein which was taken as 100% was calculated (Table 8 and Table 9). Further, the EC₅₀ value and the convergence value were calculated by Sigmoid-Emax model non-linear regression analysis.

Human Tie2 (1-452)A1-Fc = target: T10, Human Tie2 (1-452)A1-Fc (human, UniProt Q02763 23-452); test: as above
T10 construct: range 1-452
Method: as §3

Human Tie2 (1-452)A2-Fc [3] = target: T5, Human Tie2 (1-452)A2-Fc; test: as above
Method: as §3

[4] = target: human Tie2 (on human Tie2-expressing cells) (human, UniProt Q02763 23-1124); test: cell-based or functional assay

T5 sequence (Q02763 other isoform, or with tags, fused parts or gaps limits assumed, form in doubt): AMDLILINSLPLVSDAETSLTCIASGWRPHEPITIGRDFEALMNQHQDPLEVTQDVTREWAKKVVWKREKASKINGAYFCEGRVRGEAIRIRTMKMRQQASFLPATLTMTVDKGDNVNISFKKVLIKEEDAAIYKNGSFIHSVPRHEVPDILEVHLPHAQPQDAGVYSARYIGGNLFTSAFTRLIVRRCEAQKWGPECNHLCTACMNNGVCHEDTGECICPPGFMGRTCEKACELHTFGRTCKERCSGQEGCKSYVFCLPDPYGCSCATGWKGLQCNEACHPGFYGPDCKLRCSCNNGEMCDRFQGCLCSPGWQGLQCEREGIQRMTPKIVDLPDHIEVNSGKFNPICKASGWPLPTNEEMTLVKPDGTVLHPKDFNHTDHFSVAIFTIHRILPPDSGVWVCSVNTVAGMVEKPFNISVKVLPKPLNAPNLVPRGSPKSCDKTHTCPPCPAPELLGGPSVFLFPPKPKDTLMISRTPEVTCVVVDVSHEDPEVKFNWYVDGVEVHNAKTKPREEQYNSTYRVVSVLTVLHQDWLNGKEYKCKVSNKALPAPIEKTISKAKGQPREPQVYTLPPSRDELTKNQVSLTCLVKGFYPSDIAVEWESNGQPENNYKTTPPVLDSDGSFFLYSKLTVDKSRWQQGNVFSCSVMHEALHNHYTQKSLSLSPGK
T8 sequence (Q02763 other isoform, or with tags, fused parts or gaps limits assumed, form in doubt): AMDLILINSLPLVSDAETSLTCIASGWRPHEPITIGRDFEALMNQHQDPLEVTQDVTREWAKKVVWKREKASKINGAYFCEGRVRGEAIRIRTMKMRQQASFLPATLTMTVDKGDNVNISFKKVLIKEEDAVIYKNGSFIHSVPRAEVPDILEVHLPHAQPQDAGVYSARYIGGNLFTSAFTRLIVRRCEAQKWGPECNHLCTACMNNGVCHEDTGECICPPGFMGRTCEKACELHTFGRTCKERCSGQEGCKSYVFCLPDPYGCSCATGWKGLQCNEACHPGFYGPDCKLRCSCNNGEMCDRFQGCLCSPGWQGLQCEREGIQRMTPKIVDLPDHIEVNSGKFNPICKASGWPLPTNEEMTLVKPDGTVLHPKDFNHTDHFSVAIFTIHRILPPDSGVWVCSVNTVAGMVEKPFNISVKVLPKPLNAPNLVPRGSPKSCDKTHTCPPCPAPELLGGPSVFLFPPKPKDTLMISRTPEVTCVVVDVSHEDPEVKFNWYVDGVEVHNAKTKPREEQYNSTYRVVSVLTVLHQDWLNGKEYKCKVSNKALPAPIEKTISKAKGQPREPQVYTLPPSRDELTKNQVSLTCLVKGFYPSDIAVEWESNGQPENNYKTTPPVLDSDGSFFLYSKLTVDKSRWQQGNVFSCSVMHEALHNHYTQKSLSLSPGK
T4 sequence (Q02763 other isoform, or with tags, fused parts or gaps limits assumed, form in doubt): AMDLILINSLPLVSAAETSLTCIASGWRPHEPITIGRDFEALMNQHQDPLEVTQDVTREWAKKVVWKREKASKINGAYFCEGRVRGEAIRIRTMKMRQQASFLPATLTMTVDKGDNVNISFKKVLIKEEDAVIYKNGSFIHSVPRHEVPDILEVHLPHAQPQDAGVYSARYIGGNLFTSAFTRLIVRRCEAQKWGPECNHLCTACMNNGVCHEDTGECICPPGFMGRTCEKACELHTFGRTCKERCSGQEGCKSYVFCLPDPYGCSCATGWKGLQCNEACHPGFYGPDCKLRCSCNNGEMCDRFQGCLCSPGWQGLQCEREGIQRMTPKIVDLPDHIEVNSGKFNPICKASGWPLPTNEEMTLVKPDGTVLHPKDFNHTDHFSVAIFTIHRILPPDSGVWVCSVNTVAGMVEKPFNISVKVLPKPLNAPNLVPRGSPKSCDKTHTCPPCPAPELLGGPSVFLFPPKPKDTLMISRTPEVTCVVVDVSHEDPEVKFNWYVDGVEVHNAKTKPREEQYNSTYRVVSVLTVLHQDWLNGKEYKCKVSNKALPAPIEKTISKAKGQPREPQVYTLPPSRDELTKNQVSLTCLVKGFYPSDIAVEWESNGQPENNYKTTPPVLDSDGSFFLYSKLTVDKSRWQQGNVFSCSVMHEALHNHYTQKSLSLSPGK
T1 sequence (Q02763 other isoform, or with tags, fused parts or gaps limits assumed, form in doubt): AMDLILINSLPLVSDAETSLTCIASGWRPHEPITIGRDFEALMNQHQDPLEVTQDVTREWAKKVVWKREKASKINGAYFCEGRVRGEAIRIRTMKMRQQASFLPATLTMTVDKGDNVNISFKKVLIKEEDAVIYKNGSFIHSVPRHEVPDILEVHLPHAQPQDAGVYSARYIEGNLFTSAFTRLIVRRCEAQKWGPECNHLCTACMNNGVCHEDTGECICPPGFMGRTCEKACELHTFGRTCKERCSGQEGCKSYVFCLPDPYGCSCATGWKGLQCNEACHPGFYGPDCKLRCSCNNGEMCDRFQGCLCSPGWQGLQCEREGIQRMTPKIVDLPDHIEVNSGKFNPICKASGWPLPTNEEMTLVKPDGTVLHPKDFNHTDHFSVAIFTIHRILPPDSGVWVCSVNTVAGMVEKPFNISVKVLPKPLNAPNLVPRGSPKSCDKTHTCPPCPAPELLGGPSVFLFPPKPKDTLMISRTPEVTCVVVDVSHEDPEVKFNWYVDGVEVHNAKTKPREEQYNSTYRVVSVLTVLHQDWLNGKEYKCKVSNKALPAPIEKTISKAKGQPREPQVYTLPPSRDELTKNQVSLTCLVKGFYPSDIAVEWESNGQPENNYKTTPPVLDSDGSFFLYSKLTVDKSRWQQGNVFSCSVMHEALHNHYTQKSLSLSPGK
T6 sequence (Q02763 other isoform, or with tags, fused parts or gaps limits assumed, form in doubt): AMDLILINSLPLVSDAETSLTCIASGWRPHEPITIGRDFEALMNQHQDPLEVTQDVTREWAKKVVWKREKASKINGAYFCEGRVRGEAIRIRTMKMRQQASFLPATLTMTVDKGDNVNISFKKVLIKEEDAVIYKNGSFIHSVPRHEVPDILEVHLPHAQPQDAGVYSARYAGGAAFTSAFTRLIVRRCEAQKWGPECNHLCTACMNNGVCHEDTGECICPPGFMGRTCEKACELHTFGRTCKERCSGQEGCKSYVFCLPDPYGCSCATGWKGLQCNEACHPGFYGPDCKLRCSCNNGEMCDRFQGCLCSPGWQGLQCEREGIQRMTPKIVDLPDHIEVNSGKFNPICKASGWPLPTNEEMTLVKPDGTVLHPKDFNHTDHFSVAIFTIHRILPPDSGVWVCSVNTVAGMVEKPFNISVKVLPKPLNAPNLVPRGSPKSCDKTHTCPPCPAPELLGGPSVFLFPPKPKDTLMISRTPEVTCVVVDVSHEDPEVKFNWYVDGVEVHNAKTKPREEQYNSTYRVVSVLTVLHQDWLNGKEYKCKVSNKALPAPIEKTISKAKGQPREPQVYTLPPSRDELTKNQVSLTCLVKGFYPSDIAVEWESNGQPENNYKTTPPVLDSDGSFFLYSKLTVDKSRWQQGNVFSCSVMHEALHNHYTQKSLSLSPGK
T2 sequence (Q02763 other isoform, or with tags, fused parts or gaps limits assumed, form in doubt): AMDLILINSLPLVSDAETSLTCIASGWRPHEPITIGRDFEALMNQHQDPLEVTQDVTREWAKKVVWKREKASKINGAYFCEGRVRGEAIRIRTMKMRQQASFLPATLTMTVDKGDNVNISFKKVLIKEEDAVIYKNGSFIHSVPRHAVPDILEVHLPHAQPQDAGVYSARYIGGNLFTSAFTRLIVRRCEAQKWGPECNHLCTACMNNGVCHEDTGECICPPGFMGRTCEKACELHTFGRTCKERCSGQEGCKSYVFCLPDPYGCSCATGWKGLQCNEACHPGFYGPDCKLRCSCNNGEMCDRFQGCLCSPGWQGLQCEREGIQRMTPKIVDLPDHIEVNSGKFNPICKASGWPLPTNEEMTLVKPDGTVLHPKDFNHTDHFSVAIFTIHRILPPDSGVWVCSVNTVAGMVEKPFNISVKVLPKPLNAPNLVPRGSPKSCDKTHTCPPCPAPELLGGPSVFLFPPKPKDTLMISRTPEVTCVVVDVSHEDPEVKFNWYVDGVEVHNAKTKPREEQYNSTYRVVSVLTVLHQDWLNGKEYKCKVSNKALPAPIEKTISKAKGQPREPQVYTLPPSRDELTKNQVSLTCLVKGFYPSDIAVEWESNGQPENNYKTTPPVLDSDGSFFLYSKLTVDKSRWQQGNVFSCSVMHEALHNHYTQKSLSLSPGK

Binding ratio (Human Tie2 (1-452)g4-Fc): 0.02
Relative value (%) of binding ratio (human Tie2 (1-452)-Fc chimeric protein = 100%) (Human Tie2 (1-452)g4-Fc): 7%
Binding ratio (Human Tie2 (1-452)r5-Fc): 0.29
Relative value (%) of binding ratio (human Tie2 (1-452)-Fc chimeric protein = 100%) (Human Tie2 (1-452)r5-Fc): 99%
Binding ratio (Human Tie2 (1-452)r2-Fc): 0.28
Relative value (%) of binding ratio (human Tie2 (1-452)-Fc chimeric protein = 100%) (Human Tie2 (1-452)r2-Fc): 98%
Binding ratio (Human Tie2 (1-452)y1-Fc): 0.25
Relative value (%) of binding ratio (human Tie2 (1-452)-Fc chimeric protein = 100%) (Human Tie2 (1-452)y1-Fc): 87%
Binding ratio (Human Tie2 (1-452)A2-Fc [1]): 0.08
Relative value (%) of binding ratio (human Tie2 (1-452)-Fc chimeric protein = 100%) (Human Tie2 (1-452)A2-Fc [1]): 29%
Binding ratio (Human Tie2 (1-452)g1-Fc): 0
Relative value (%) of binding ratio (human Tie2 (1-452)-Fc chimeric protein = 100%) (Human Tie2 (1-452)g1-Fc): 0%
Binding ratio (Human Tie2 (1-452)r1-Fc): 0.29
Relative value (%) of binding ratio (human Tie2 (1-452)-Fc chimeric protein = 100%) (Human Tie2 (1-452)r1-Fc): 102%
Binding ratio (Human Tie2 (1-452)r4-Fc): 0.33
Relative value (%) of binding ratio (human Tie2 (1-452)-Fc chimeric protein = 100%) (Human Tie2 (1-452)r4-Fc): 113%
B1: fully human 2-16A2-Fab (Fab, V domains shown)
VH: EVQLVESGGGLVQPGGSLRLSCAASGFTFDDYAMHWVRQAPGKGLEWVAGISWNSGSIVYADSVKGRFTISRDNSKNTLYLQMNSLRAEDTAVYYCAKDIREQLVEDAFDIWGQGTLVTVSS
VL: DIQMTQSPSSLSASVGDRVTITCRSSQSLLHSHRYNYLDWYQQKPGKAPKLLIYLGSNRASGVPSRFSGSGSGTDFTLTISSVQPEDFATYYCMQTLQTPLTFGQGTKVEIKR
notes: also called Fab of the fully human 2-16A2

Relative value (%) of luminescent intensity [2]: 98%
Relative value (%) of luminescent intensity (Human Tie2 (1-452)A1-Fc): 90%
Relative value (%) of luminescent intensity (Human Tie2 (1-452)A2-Fc [3]): 95%
EC50 value of anti-apoptotic activity, human Tie2-expressing BaF3 cell [4]: 3.65 ng/mL
B2: TIE-1-Igγ1-LALA (antibody, human IgG1, kappa, L234A L235A)
heavy: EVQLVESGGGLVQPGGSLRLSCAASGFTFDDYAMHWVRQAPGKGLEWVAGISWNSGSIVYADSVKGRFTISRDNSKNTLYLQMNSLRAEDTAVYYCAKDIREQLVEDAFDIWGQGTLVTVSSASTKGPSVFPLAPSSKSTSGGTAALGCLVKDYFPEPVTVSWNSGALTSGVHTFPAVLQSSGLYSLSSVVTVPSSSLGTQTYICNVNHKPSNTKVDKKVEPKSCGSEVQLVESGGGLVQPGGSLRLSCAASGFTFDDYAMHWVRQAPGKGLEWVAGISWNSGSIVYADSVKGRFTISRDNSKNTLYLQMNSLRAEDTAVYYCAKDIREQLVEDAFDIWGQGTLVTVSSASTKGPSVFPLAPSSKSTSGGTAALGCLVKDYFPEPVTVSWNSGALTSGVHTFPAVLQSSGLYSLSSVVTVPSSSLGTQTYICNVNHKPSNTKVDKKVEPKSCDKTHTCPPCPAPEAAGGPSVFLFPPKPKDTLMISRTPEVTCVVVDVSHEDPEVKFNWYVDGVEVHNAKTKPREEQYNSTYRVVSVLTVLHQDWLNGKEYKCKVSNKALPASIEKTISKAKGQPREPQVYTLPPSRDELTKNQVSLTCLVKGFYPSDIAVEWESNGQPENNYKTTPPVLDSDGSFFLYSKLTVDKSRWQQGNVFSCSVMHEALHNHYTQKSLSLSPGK
light: DIQMTQSPSSLSASVGDRVTITCRSSQSLLHSHRYNYLDWYQQKPGKAPKLLIYLGSNRASGVPSRFSGSGSGTDFTLTISSVQPEDFATYYCMQTLQTPLTFGQGTKVEIKRTVAAPSVFIFPPSDEQLKSGTASVVCLLNNFYPREAKVQWKVDNALQSGNSQESVTEQDSKDSTYSLSSTLTLSKADYEKHKVYACEVTHQGLSSPVTKSFNRGEC
notes: Tandem tetravalent format: two heavy chains (VH-CH1-linker-VH-CH1-CH2-CH3) and four light chains; also called tetravalent anti-human Tie2 antibody with L234A, L235A and P331S
